{"source": "paper PMC3378601", "key": {"[1]": {"target": "NM, the prion domain (N and M domains) of the yeast translation termination factor Sup35, untagged (yeast) (UniProt P05453)", "sequence (P05453 1-253)": "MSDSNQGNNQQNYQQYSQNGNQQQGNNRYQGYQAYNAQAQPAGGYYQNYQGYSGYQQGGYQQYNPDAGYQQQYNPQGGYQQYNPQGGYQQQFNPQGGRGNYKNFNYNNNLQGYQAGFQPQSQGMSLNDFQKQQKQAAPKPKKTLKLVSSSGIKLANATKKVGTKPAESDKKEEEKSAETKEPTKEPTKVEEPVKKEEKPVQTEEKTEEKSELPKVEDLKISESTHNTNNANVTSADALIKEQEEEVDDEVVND"}, "[2]": {"target": "NM, the prion domain (N and M domains) of the yeast translation termination factor Sup35, untagged (yeast) (UniProt P05453)", "remark": "listed apart in the source"}, "[3]": {"target": "NM, the prion domain (N and M domains) of the yeast translation termination factor Sup35, untagged (yeast) (UniProt P05453)", "remark": "listed apart in the source"}}}
{"substance": "Hsp26, yeast small heat shock protein (from UniProt P15992 1-214) (natural protein)", "values": [{"measurement": "inhibition of NM (5 µM) fibrillization seeded by preformed NM fibers (5% wt/wt), 12 h at 25°C, ThT fluorescence; IC50 of Hsp26", "setting": "[1]", "result": 1.9, "unit": "µM"}, {"measurement": "pyrene excimer fluorescence of fibers of single cysteine NM mutants after 60 min with Hsp26 (10 µM); reduction at N-terminal positions 2 and 7 (slightly reduced in Head 21-38 and Tail 86-106)", "setting": "[2]", "result": 2, "unit": "fold"}, {"measurement": "inhibition of seeded NM fibrillization by Hsp26 pretreated at 45°C for 10 min, ThT fluorescence; IC50", "setting": "[3]", "result": "> 24", "unit": "µM"}]}
